Results published in patent US10293027B2, “Methods for treating metabolic disorders using FGF” (Salk Institute for Biological Studies, priority 2010, dated 2019).
“Also recorded” adds a separate entry of the source.

Assays:
Format in all cases: in vivo, mouse
ob/ob male mice = assay: Daily FGF-1 or rosiglitazone treatment of ob/ob mice: fed blood glucose and body composition (Example 5)
Procedure: FIGS. 7A-7H. FGF-1 injection studies in rodents. (A) Fed blood glucose in ob/ob male mice treated with FGF-1 (0.5 mg/kg, s.c.), rosiglitazone (TZD, 5 mg/kg, p.o.), or vehicle. FGF-1 was administered once daily, and blood glucose levels were measured at day 0 (basal levels before FGF-1 injection), day 3, and day 6, 1 hour after injection. The values (±SE) shown are the average of the measurements of 5 animals in a group; (B) Sustained glucose lowering effects of FGF-1: Fed blood glucose levels in ob/ob mice at indicated time points after the last FGF-1 injection at day 6. (C-H): 72 hrs after the sixth dose, another dose was given and effects of FGF-1 and TZD on (C) body weight, (D) total body fat, (E) lean weight, (F) weight gain, (G) liver weight, and (H) heart weight were determined.
In Example 5, ob/ob male mice (8 wk old) were randomized into three groups and treated with daily subcutaneous (s.c.) injections of recombinant mouse FGF-1 (0.5 mg/kg in PBS), oral rosiglitazone (TZD, 5 mg/kg in 0.5% carboxymethyl cellulose), or vehicle. Blood glucose levels were measure in fed animals one hour after treatment. Total body composition analysis was performed using an EchoMRI-100™ (Echo Medical Systems, LLC).
Eight-week-old male ob/ob mice were treated with recombinant mouse FGF-1 (0.5 mg/kg/day, s.c. in 250 μl), rosiglitazone (TZD, 5 mg/kg/day, p.o. in 300 μl), or vehicle control (s.c. vehicle control 0.9% NaCl, 250 μl/mouse; p.o. vehicle control 0.5% CMC, 300 μl/mouse). Blood glucose was measured one hour after treatment at day 3 and day 6 using a standard protocol. (FIG. 7A).
Before treatment, all groups were severely hyperglycemic, as indicated by blood glucose levels of about 400 mg/dl. […] At 6 days, blood glucose levels were even further reduced to around 130-140 mg/dl for both groups. After the sixth dose, blood glucose levels were monitored for another 72 hrs. During this period, both FGF-1- and TZD-treated cohorts maintained normoglycemic levels (<140 mg/dl) for at least 48 hrs (FIG. 7B). At 72 hrs after the sixth dose, a final dose was given, and 12 hrs later, a total body composition analysis was performed by MRI followed by necropsy.

ob/ob mice [1] = assay: Acute effects of FGF-1 on blood glucose: dose response and time courses after s.c. and i.v. administration (Example 6); conditions: for duration of blood glucose reduction after intravenous administration: 0.2 mg/kg i.v.
Procedure: FIG. 8. Dose response effect of FGF-1 (s.c., mg/kg) on blood glucose levels of ob/ob mice.
FIG. 9. Effect of FGF-1 (s.c., 0.5 mg/kg) on blood glucose levels of ob/ob mice.
FIG. 10. Effect of intravenous FGF1 (0.2 mg/kg) on blood glucose levels of ob/ob mice.
In order to establish the acute effects of FGF-1 on blood glucose levels, dose response curves (FIG. 8) and time courses after subcutaneous (FIG. 9) and intravenous (FIG. 10) administration were performed.

ob/ob mice [2] = assay: Single s.c. injection of human FGF1 or other FGFs, blood glucose in ob/ob mice (Examples 13, 14); conditions: 0.5 mg/kg s.c.
Procedure: FIG. 26. Human recombinant FGF-1 is effective in mice.
FIG. 27. Comparison of FGF1, FGF2, FGF9, and FGF10 effects. Single subcutaneous injection of FGFs (0.5 mg/kg) in ob/ob mice.
As human recombinant FGF-1 is already being used in the clinic, the present methods of using it to treat metabolic disorders offer a straightforward regulatory path to treatment.
As explained above, the FGF family of factors bind to members of the FGFR family of receptors with different specificities. FGF-1 binds preferentially to FGFR1 and FGFR4, and can be internalized into a cell expressing these receptors. To determine if other FGF proteins have similar metabolic effects as FGF-1, we tested blood glucose in ob/ob mice treated with FGF-2, FGF-9, and FGF-10 (0.5 mg/kg s.c.). This combination of FGF proteins binds to the spectrum of FGFRs.

B1: FGF-1: recombinant mouse FGF-1 (acidic fibroblast growth factor), a secreted protein that binds heparin and FGF receptors (protein, UniProt P61148 16-155, looked up)
Fibroblast growth factor 1: FNLPLGNYKKPKLLYCSNGGHFLRILPDGTVDGTRDRSDQHIQLQLSAESAGEVYIKGTETGQYLAMDTEGLLYGSQTPNEECLFLERLEENHYNTYTSKKHAEKNWFVGLKKNGSCKRGPRTHYGQKAILFLPLPVSSD
- blood glucose levels at day three (ob/ob male mice; fed ob/ob male mice, one hour after treatment, FGF-1 0.5 mg/kg/day s.c., TZD 5 mg/kg/day p.o., about 400 mg/dl before treatment): about 200 mg/dl
- blood glucose (in words) (ob/ob male mice; ob/ob diabetic mice, FGF-1 administration): decreases fed blood glucose in ob/ob mice; also recorded: normalizes their glucose levels
- fat-lean ratio (ob/ob male mice; ob/ob mice, total body composition by MRI): improves their fat-lean ratio
- duration of blood glucose reduction after intravenous administration (ob/ob mice [1]; ob/ob mice): significantly reduced blood glucose for at least one week; also recorded: much longer lasting (at least one week)
- duration of blood glucose reduction after intravenous administration (ob/ob mice [1]; ob/ob mice, listed as FGF1): last up to one week
- dose dependence of glucose reduction (ob/ob mice [1]; ob/ob mice): dramatic dose-dependent reduction of glucose levels
- EC50 of glucose lowering effect (ob/ob mice [1]; s.c., blood glucose of ob/ob mice, dose response): 0.25 mg/kg
- dose at which maximum glucose lowering effects are reached (ob/ob mice [1]; s.c., ob/ob mice): 0.5 mg/kg
- onset of effect of subcutaneous dosing (ob/ob mice [1]; s.c., ob/ob mice): effective within a matter of hours
- blood glucose in ob/ob mice after a single s.c. injection (ob/ob mice [2]): Only FGF1 has glucose normalizing effects
